Measurements from article PMC2783756 (Biochemistry, 2009).

Legend:
[1] = system: medium-chain acyl-CoA dehydrogenase; conditions: activity drops significantly for changes in temperature as small as 3 °C; ref [21]; cited from earlier work
[2] = system: NKX3.1 homeodomain; experiment: CD thermal unfolding of NKX3.1 constructs; assay type: physicochemical; conditions: with and without His tag sequence; within error (±1 °C)
[3] = system: DNA; conditions: previously observed for N-terminal construct; ref [6]; cited from earlier work

B1: Y42H allele of human medium-chain acyl-CoA dehydrogenase: Y42H allele of human medium-chain acyl-CoA dehydrogenase (protein, UniProt P11310 26-421, looked up, variant Y42H)
Medium-chain specific …: KANRQREPGLGFSFEFTEQQKEFQATARKFAREEIIPVAAEHDKTGEYPVPLIRRAWELGLMNTHIPENCGGLGLGTFDACLISEELAYGCTGVQTAIEGNSLGQMPIIIAGNDQQKKKYLGRMTEEPLMCAYCVTEPGAGSDVAGIKTKAEKKGDEYIINGQKMWITNGGKANWYFLLARSDPDPKAPANKAFTGFIVEADTPGIQIGRKELNMGQRCSDTRGIVFEDVKVPKENVLIGDGAGFKVAMGAFDKTRPVVAAGAVGLAQRALDEATKYALERKTFGKLLVEHQAISFMLAEMAMKVELARMSYQRAAWEVDSGRRNTYYASIAKAFAGDIANQLATDAVQILGGNGFNTEYPVEKLMRDAKIYQIYEGTSQIQRLIVAREHIDKYKN
For B1, the “Thermal stability and activity” value [1] is listed as “lower thermal stability”.

B2: 114–184: NKX3.1 homeodomain construct, recombinant with N-terminal hexahistidine sequence (protein, UniProt Q99801 114-184, looked up, fragment)
chain: PRLPQTPKQPQKRSRAAFSHTQVIELERKFSHQKYLSAPERAHLAKNLKLTETQVKIWFQNRRYKTKRKQL
modifications: N-terminal His6 tag
In the case of B2, the “Effect of His tag on unfolding transition temperature” value [2] is reported as “the same unfolding transition temperature within error”.

B3: 1–184: NKX3.1 (1–184) construct, recombinant with N-terminal hexahistidine sequence (protein, UniProt Q99801 1-184, looked up, fragment)
chain: MLRVPEPRPGEAKAEGAAPPTPSKPLTSFLIQDILRDGAQRQGGRTSSQRQRDPEPEPEPEPEGGRSRAGAQNDQLSTGPRAAPEEAETLAETEPERHLGSYLLDSENTSGALPRLPQTPKQPQKRSRAAFSHTQVIELERKFSHQKYLSAPERAHLAKNLKLTETQVKIWFQNRRYKTKRKQL
modifications: N-terminal His6 tag
In the case of B3, the DNA binding [3] is given as “weaker DNA binding”.
